Conditions: Escherichia coli (strain K12), Thermal, CD, reversible: yes, whole UniProt chain shown

B1: Ribonuclease HI wild type, P0A7Y4 (protein)
chain: MLKQVEIFTDGSCLGNPGPGGYGAILRYRGREKTFSAGYTRTTNNRMELMAAIVALEALKEHCEVILSTDSQYVRQGITQWIHNWKKRGWKTADKKPVKNVDLWQRLDAALGQHQIKWEWVKGHAGHPENERCDELARAAAMNPTLEDTGYQVEV
Tm (pH 3, glycine-HCl 10 mM): 50 °C
unfolding enthalpy (van 't Hoff) (pH 3, glycine-HCl 10 mM): 95.1 kcal/mol
Tm (pH 9, glycine-NaOH 50 mM): 47 °C
